Results reported in the Immune Epitope Database (IEDB).

Experiments:
HLA-A*26:01 [1] = assay: IEDB peptide-MHC binding, purified MHC/competitive/fluorescence; filed as Kd, often an IC50 or EC50 that approximates it; ≥ and ≤ were set here for values at or beyond the usual limits of such assays; conditions: source organism: Mycobacterium tuberculosis C
HLA-A*02:06 = assay: as above; conditions: source organism: Mycobacterium tuberculosis C
HLA-A*68:02 = assay: as above; conditions: source organism: Mycobacterium tuberculosis C
HLA-A*26:02 = assay: as above; conditions: source organism: Mycobacterium tuberculosis C
HLA-B*40:01 = assay: IEDB peptide-MHC binding, purified MHC/direct/fluorescence; filed as Kd, often an IC50 or EC50 that approximates it; ≥ and ≤ were set here for values at or beyond the usual limits of such assays
HLA-B*57:01 [2] = assay: as above
HLA-B*15:01 [3] = assay: as above
HLA-B*27:05 = assay: as above
HLA-B*48:01 = assay: as above
HLA-B*15:17 = assay: as above
HLA-A*69:01 = assay: as above
HLA-A*31:01 = assay: as above
HLA-B*46:01 [4] = assay: as above
HLA-B*18:01 = assay: as above
HLA-B*58:01 = assay: as above
HLA-A*01:01 [5] = assay: as above
HLA-A*11:01 [6] = assay: as above
HLA-B*07:02 [7] = assay: as above; conditions: source organism: Mycobacterium tuberculosis
HLA-A*01:01 [8] = assay: IEDB peptide-MHC binding, purified MHC/competitive/fluorescence; ≥ and ≤ were set here for values at or beyond the usual limits of such assays; conditions: source organism: Zaire ebolavirus
HLA-B*15:01 [9] = assay: IEDB peptide-MHC binding, purified MHC/competitive/fluorescence; filed as Kd, often an IC50 or EC50 that approximates it; ≥ and ≤ were set here for values at or beyond the usual limits of such assays; conditions: source organism: Vibrio parahaemolyticus K5030
HLA-A*11:01 [10] = assay: as above
HLA-A*02:01 [11] = assay: IEDB peptide-MHC binding, purified MHC/direct/fluorescence; filed as Kd, often an IC50 or EC50 that approximates it; ≥ and ≤ were set here for values at or beyond the usual limits of such assays
HLA-A*26:01 [12] = assay: as above; conditions: source organism: Vibrio parahaemolyticus RIMD 2210633
HLA-B*08:02 = assay: as above; conditions: source organism: Vibrio parahaemolyticus RIMD 2210633
HLA-A*03:01 = assay: as above
HLA-B*39:01 = assay: as above; conditions: source organism: Vibrio parahaemolyticus RIMD 2210633
HLA-A*02:01 [13] = assay: IEDB peptide-MHC binding, purified MHC/competitive/radioactivity; ≥ and ≤ were set here for values at or beyond the usual limits of such assays; conditions: source organism: Homo sapiens
HLA-C*08:02 = assay: IEDB peptide-MHC binding, purified MHC/direct/fluorescence; filed as Kd, often an IC50 or EC50 that approximates it; ≥ and ≤ were set here for values at or beyond the usual limits of such assays
HLA-B*35:01 [14] = assay: IEDB peptide-MHC binding, purified MHC/competitive/fluorescence; filed as Kd, often an IC50 or EC50 that approximates it; ≥ and ≤ were set here for values at or beyond the usual limits of such assays; conditions: source organism: Bacillus anthracis str. A2012
HLA-B*07:02 [15] = assay: as above; conditions: source organism: Bacillus anthracis str. A2012
HLA-B*51:01 = assay: as above; conditions: source organism: Bacillus anthracis str. A2012
HLA-B*57:01 [16] = assay: IEDB peptide-MHC binding, purified MHC/competitive/radioactivity; filed as Kd, often an IC50 or EC50 that approximates it; ≥ and ≤ were set here for values at or beyond the usual limits of such assays; conditions: source organism: Homo sapiens
HLA-B*44:03 = assay: as above; conditions: source organism: Homo sapiens
HLA-B*44:02 = assay: as above; conditions: source organism: Homo sapiens
HLA-C*12:03 = assay: IEDB peptide-MHC binding, purified MHC/direct/fluorescence; filed as Kd, often an IC50 or EC50 that approximates it; ≥ and ≤ were set here for values at or beyond the usual limits of such assays
HLA-B*45:06 = assay: IEDB peptide-MHC binding, purified MHC/competitive/fluorescence; filed as Kd, often an IC50 or EC50 that approximates it; ≥ and ≤ were set here for values at or beyond the usual limits of such assays; conditions: source organism: Vibrio vulnificus YJ016
HLA-B*15:42 = assay: as above; conditions: source organism: Vibrio vulnificus YJ016
HLA-C*14:02 = assay: as above; conditions: source organism: Vibrio vulnificus YJ016
HLA-C*04:01 = assay: as above; conditions: source organism: Vibrio vulnificus YJ016
HLA-B*46:01 [17] = assay: as above; conditions: source organism: Vibrio vulnificus YJ016
HLA-B*83:01 = assay: as above; conditions: source organism: Vibrio vulnificus YJ016
HLA-C*06:02 = assay: IEDB peptide-MHC binding, purified MHC/direct/fluorescence; filed as Kd, often an IC50 or EC50 that approximates it; ≥ and ≤ were set here for values at or beyond the usual limits of such assays; conditions: source organism: Vibrio vulnificus YJ016
HLA-B*35:01 [18] = assay: as above; conditions: source organism: Vibrio vulnificus YJ016
[19] = source organism: Mycobacterium tuberculosis
[20] = source organism: Vibrio parahaemolyticus
[21] = source organism: Camelpox virus M-96

AVFPRYHPR was tested. Which Kd (HLA-A*26:01 [1]) did it give?
Its Kd is 1670 nM.

And the Kd (HLA-A*02:06)?
Its Kd is 2100 nM.

What about the Kd (HLA-A*68:02) of the same sequence?
The Kd was 1910 nM.

And the Kd (HLA-A*26:02)?
Its Kd is at least 20000 nM.

And the Kd (HLA-B*40:01; [19])?
Its Kd is at least 20000 nM.

And the Kd (HLA-B*57:01 [2]; [19])?
The Kd was at least 20000 nM.

What about the Kd (HLA-B*15:01 [3]; [19]) of the same sequence?
Its Kd is at least 20000 nM.

What about the Kd (HLA-B*27:05; [19]) of the same sequence?
Its Kd is at least 20000 nM.

And the Kd (HLA-B*48:01; [19])?
Its Kd is at least 20000 nM.

And the Kd (HLA-B*15:17; [19])?
The Kd was at least 20000 nM.

What about the Kd (HLA-A*69:01; [19]) of the same sequence?
Its Kd is at least 20000 nM.

What about the Kd (HLA-A*31:01; [19]) of the same sequence?
The Kd was 4.7 nM.

What about the Kd (HLA-B*46:01 [4]; [19]) of the same sequence?
The Kd was at least 20000 nM.

And the Kd (HLA-B*18:01; [19])?
The Kd was at least 20000 nM.

What about the Kd (HLA-B*58:01; [19]) of the same sequence?
Its Kd is at least 20000 nM.

And the Kd (HLA-A*01:01 [5]; [19])?
The Kd was at least 20000 nM.

And the Kd (HLA-A*11:01 [6]; [19])?
Its Kd is 38 nM.

What about the Kd (HLA-B*07:02 [7]) of the same sequence?
Its Kd is at least 20000 nM.

How did the IC50 (HLA-A*01:01 [8]) turn out when GPFDAVLYY was run?
The IC50 was at least 172000 nM.

LTESDMDYH was tested. Which IC50 (HLA-A*01:01 [8]) did it give?
The IC50 was 41600 nM.

With NSSYWRQGY as the sequence, how does the Kd (HLA-B*15:01 [9]) read?
Its Kd is at least 20000 nM.

What about the Kd (HLA-A*11:01 [10]; source organism: Vibrio parahaemolyticus K5030) of the same sequence?
The Kd was at least 20000 nM.

What about the Kd (HLA-A*02:01 [11]; [20]) of the same sequence?
The Kd was at least 20000 nM.

And the Kd (HLA-B*40:01; [20])?
Its Kd is at least 20000 nM.

And the Kd (HLA-A*26:01 [12])?
The Kd was 160 nM.

What about the Kd (HLA-B*57:01 [2]; [20]) of the same sequence?
The Kd was at least 20000 nM.

And the Kd (HLA-B*27:05; [20])?
The Kd was at least 20000 nM.

What about the Kd (HLA-B*48:01; [20]) of the same sequence?
The Kd was at least 20000 nM.

And the Kd (HLA-B*15:17; [20])?
Its Kd is 222 nM.

And the Kd (HLA-A*69:01; [20])?
Its Kd is at least 20000 nM.

What about the Kd (HLA-B*08:02) of the same sequence?
Its Kd is at least 20000 nM.

And the Kd (HLA-A*31:01; [20])?
Its Kd is at least 20000 nM.

What about the Kd (HLA-B*46:01 [4]; [20]) of the same sequence?
Its Kd is at least 20000 nM.

What about the Kd (HLA-B*18:01; [20]) of the same sequence?
The Kd was at least 20000 nM.

What about the Kd (HLA-A*03:01; [20]) of the same sequence?
The Kd was at least 20000 nM.

What about the Kd (HLA-B*58:01; [20]) of the same sequence?
Its Kd is at least 20000 nM.

What about the Kd (HLA-A*01:01 [5]; [20]) of the same sequence?
Its Kd is 93 nM.

And the Kd (HLA-B*39:01)?
Its Kd is at least 20000 nM.

RQASLSISV was tested. Which IC50 (HLA-A*02:01 [13]) did it give?
The IC50 was 284 nM.

Which IC50 (HLA-A*02:01 [13]) does the source give for SCSRAIPQV here?
The IC50 was 1470 nM.

For SFGGFTFK, which Kd (HLA-A*11:01 [10]; source organism: Influenza A virus H3N2) is on record?
The Kd was 44.8 nM.

With YLSSWTPVV as the sequence, how does the Kd (HLA-A*02:01 [11]; [21]) read?
The Kd was at most 1 nM.

And the Kd (HLA-C*08:02; source organism: Variola virus)?
The Kd was 74 nM.

What about the Kd (HLA-A*69:01; [21]) of the same sequence?
The Kd was 154 nM.

For YPIVIAPAM, which Kd (HLA-B*35:01 [14]) is on record?
Its Kd is at most 0.1 nM.

And the Kd (HLA-B*07:02 [15])?
The Kd was 13.8 nM.

What about the Kd (HLA-B*51:01) of the same sequence?
The Kd was 1010 nM.

YTAVVPLVY was tested. Which Kd (HLA-B*57:01 [16]) did it give?
The Kd was 208 nM.

And the Kd (HLA-B*44:03)?
Its Kd is 5540 nM.

And the Kd (HLA-B*44:02)?
The Kd was 7780 nM.

And the Kd (HLA-C*08:02; source organism: Homo sapiens)?
Its Kd is at least 20000 nM.

And the Kd (HLA-B*15:01 [3]; source organism: Homo sapiens)?
Its Kd is 410 nM.

And the Kd (HLA-A*69:01; source organism: Homo sapiens)?
The Kd was 1310 nM.

And the Kd (HLA-A*03:01; source organism: Homo sapiens)?
Its Kd is 4540 nM.

And the Kd (HLA-B*58:01; source organism: Homo sapiens)?
The Kd was 63.1 nM.

What about the Kd (HLA-A*01:01 [5]; source organism: Homo sapiens) of the same sequence?
Its Kd is 143 nM.

What about the Kd (HLA-A*11:01 [6]; source organism: Homo sapiens) of the same sequence?
Its Kd is 2500 nM.

And the Kd (HLA-C*12:03; source organism: Homo sapiens)?
Its Kd is 171 nM.

Which Kd (HLA-B*45:06) does the source give for YTMELCGAM here?
The Kd was at least 5000 nM.

What about the Kd (HLA-B*15:42) of the same sequence?
The Kd was at least 5000 nM.

What about the Kd (HLA-C*14:02) of the same sequence?
The Kd was at most 0.1 nM.

And the Kd (HLA-C*04:01)?
The Kd was at least 5000 nM.

What about the Kd (HLA-B*46:01 [17]) of the same sequence?
The Kd was 18 nM.

And the Kd (HLA-B*83:01)?
The Kd was at least 5000 nM.

What about the Kd (HLA-C*06:02) of the same sequence?
Its Kd is at least 20000 nM.

And the Kd (HLA-B*35:01 [18])?
The Kd was 28 nM.

And the Kd (HLA-C*12:03; source organism: Vibrio vulnificus YJ016)?
Its Kd is 88 nM.
